# Experimental data taken from publication PMC5402964.
# Biological target: α5β1 integrin (UniProt P08648)
# Assay: SPR
substance,measurement,value
"DisBa-01 (disintegrin of Bothrops alternatus), recombinant His-tag protein (natural protein; other documents disagree on this pair)",Kd,76.2 µM
